According to patent US20240228986A1, “ENGINEERED CELLS, ENZYMES, AND METHODS FOR PRODUCING CANNABINOIDS” (priority 2021, published 2024):

Tests used:
olivetolic acid [1] = test: GPS-APT fusions, OA feed in vivo assay (Example 11); format: cell-based, Yarrowia; settings: for CBGA / FCBGA: olivetolic acid feed as in Example 8, 48 h quench, strain sCL-SE-0128; for CBGA/FCBG: olivetolic acid feed, 48 h quench, product ratio
Description: (§1) As described below, plasmids pCL-SE-0406, pCL-SE-0664, pCL-SE-0663, pCL-SE-0662, pCL-SE-0380 (MPT4), pCL-SE-0337.MPT21, pCL-SE-0337.MPT26, and pCL-SE-0337.MPT31 were transformed into strain sCL-SE-0128. Multiple colonies per transformation were precultured for 48 h in YNB containing glucose (2%), casamino acids (0.5%), and MES (100 mM pH 6.5). Pre-culture was used to inoculate assay medium comprised of YNB containing glucose (2%), casamino acids (0.5%), MES (100 mM pH 6.5), and olivetolic acid (2 mM). Cultures were quenched with equal volume of ethanol after 48 h total growth and assayed for CBGA and FCBGA. Averages and standard deviations were calculated from replicates.
Soluble prenyl transferase APT73.77 was fused with GPS1.1 at the N- or C-terminus with different linkers creating the plasmids shown in Table 14. These fusion proteins were expressed and screened as described in Example 8 (olivetolic acid feed)
(§2) Overnight YPD (10 g/L yeast extract, 20 g/L peptone, 2% dextrose) cultures were inoculated from glycerol stocks of the appropriate strain and grown at 30° C. with 250 rpm shaking. Once cultures had reached an OD600 of 4-6, cultures were centrifuged at 500×g for 5 min, supernatants were discarded, and cell pellets were resuspended in equal volume of water. Resuspended cells were centrifuged at 500×g for 5 min, supernatants were discarded, and cells were resuspended in a volume (75 μL×OD×Vculture) of transformation cocktail (45% PEG-400, 0.1 M LiAc, 0.1 M DTT, and 25 ug/100 μL SS Salmon Sperm DNA). For each transformation, >1 μg of plasmid DNA was added to 55 μL cells/transformation cocktail and vortexed for 2 s. Transformations were incubated at 39° C. for 1 h with 250 rpm shaking. Transformations were resuspended in 750 μL YPD with 1 M sorbitol and recovered at 30° C. overnight with 250 rpm shaking. The next day, transformations were centrifuged at 500×g for 5 min, supernatants were discarded, and cell pellets were resuspended in 750 YPD. Resuspended transformations were plated on YPD with appropriate selection or YNBD (6.71 g/L yeast nitrogen base+nitrogen, 0.5% casamino acids, 2% dextrose) agar plates and grown at 30° C. for 2 days. Individual colonies were patched onto YPD plates with appropriate selection or YNBD plates and grown at 30° C. overnight. Patches were used to inoculate 0.5 mL YPD with appropriate selection or YNBD precultures in 96 w blocks and grown at 30° C. for 24-48 h with 1000 rpm shaking. For assays, 0.5 mL YPD with appropriate selection or YNBD cultures containing substrate were inoculated with 2 μL from precultures and grown at 30° C. for 2-4 days with 1000 rpm shaking with 2% glucose added every 24 h. Assay cultures were quenched by addition of 0.5 mL ethanol with 0.2% formic acid and 0.5 mg/mL pentyl-benzoic acid. Precipitates were pelleted by centrifuging at 4600×g for 10 min and then 200 μL was transferred to fresh plates, sealed, and analyzed via HPLC.
(§3) All samples were quenched with equal volume of EtOH containing 0.2 mg/mL internal standard (3,5-Diisopropyl-2-hydroxybenzoic acid CAS #2215-21-6) centrifuged, and clarified solutions were analyzed by HPLC-MS
(§4) • Column: 2.1×50 mm COSMOCORE PBr (Nacalai USA, Inc.) • Mobile Phase: A; 0.1% formic acid in water, B; 0.1% formic acid in acetonitrile • Flow: 0.45 mL/min • Temp: % 50 Celsius • Gradient: 20%B at 0 min, 70%B at 2.3 min, 89% B at 4.2 min, 20% B at 4.3 min, 20%B at 6 min

olivetolic acid [2] = test: MPT fusions with GPS1.1 vs unfused MPTs, OA feed (Example 8, Table 9); format: cell-based, Yarrowia; settings: 2 mM olivetolic acid, 48 h quench; for CBGA / FCBGA: 2% glucose, strain sCL-SE-0128; for CBGA/FCBGA: product ratio
Description: as §1, §2, §3, §4

Molecule	CBGA (olivetolic acid [1]) [µM]	FCBGA (olivetolic acid [1]) [µM]	CBGA/FCBG (olivetolic acid [1])	CBGA (olivetolic acid [2]) [µM]	FCBGA (olivetolic acid [2]) [µM]	CBGA/FCBGA (olivetolic acid [2])
APT73.77-F17-GPS1.1: fusion protein, SEQ ID NO: 64 (protein, APT73.77-F17-GPS1.1, mutant soluble aromatic prenyltransferase, geranyl diphosphate synthase fusion protein) MDEVYAAVEQTSRLLDVPCSPDRFEPVWKAFGDQLPDSHLVFSMAAGEAHRGELDFDFSLRPEGADPYTTALEHGFIEPTDHPVGSVLAEVGKRFAIASYGVEYGVVGGFKKSYAFFPLDDFPPLAQFAEVPSVPPCLAGHVETLTRLGFDDKVSIIGVNYRKNTLNVYLAASAVDTGDKLALLRAFGYPEPDARVRQFIERSFRLYPTFNWDSSAAERICFAVHTQQPGELPAPHDEPTEAFARQVPHVYEGGREFVSGVALAPSGASYYKLAALYQKARRCLDGGGGSMSKAKFESVFPRISEELVQLLRDEGLPQDAVQWFSDSLQYNCVGGKLNRGLSVVDTYQLLTGKKELDDEEYYRLALLGWLIELLQAFWLVSDDIMDESKTRRGQPCWYLKPKVGMIAIWDAFMLESGIYILLKKHFRQEKYYIDLVELFHDISFKTELGQLVDLLTAPEDEVDLNRFSLDKHSFIVRYKTAYYSFYLPVVLAMYVAGITNPKDLQQAMDVLIPLGEYFQVQDDYLDNFGDPEFIGKIGTDIQDNKCSWLVNKALQKATPEQRQILEDNYGVKDKSKELVIKKLYDDMKIEQDYLDYEEEVVGDIKKKIEQVDESRGFKKEVLNAFLAKIYKRQK	242 ± 36	73 ± 9	3.3			
GPS1.1-F11-MPT26: fusion protein, SEQ ID NO: 26 (protein, GPS1.1-F11-MPT26, geranyl diphosphate synthase, recombinant membrane-bound prenyltransferase fusion protein) MSKAKFESVFPRISEELVQLLRDEGLPQDAVQWFSDSLQYNCVGGKLNRGLSVVDTYQLLTGKKELDDEEYYRLALLGWLIELLQAFWLVSDDIMDESKTRRGQPCWYLKPKVGMIAIWDAFMLESGIYILLKKHFRQEKYYIDLVELFHDISFKTELGQLVDLLTAPEDEVDLNRFSLDKHSFIVRYKTAYYSFYLPVVLAMYVAGITNPKDLQQAMDVLIPLGEYFQVQDDYLDNFGDPEFIGKIGTDIQDNKCSWLVNKALQKATPEQRQILEDNYGVKDKSKELVIKKLYDDMKIEQDYLDYEEEVVGDIKKKIEQVDESRGFKKEVLNAFLAKIYKRQKGGAEAAAKEAAAKAGGSGGGSGGGGSGGSGGGGSGGGGSMSDNSIATKILNFGHTCWKLQRPYVVKGMISIACGLFGKELLHNTNLISWGLMWKAFFALVPILSFNFFAAIMNQIYDVDIDRINKPDLPLVSGEMSIETAWILSIIVALTGLIVTIKLKSAPLFVFIYIFGIFAGFAYSVPPIRWKQNPSTNFLITISSHVGLAFTSYSATTSALGLPFVWRPAFSFIIAFMTVMGMTIAFAKDISDIEGDAKYGVSTVATKLGARNMTFVVSGVLLLNYVAAILAGIIWPQAFNSNVMLLSHAILAFWLILQTRDFALTNYDPEAGRRFFEFIWLLYYAEYFVYVFI				98 ± 8	21 ± 2	4.6
GPS1.1-F18-APT73.77: fusion protein, SEQ ID NO: 65 (protein, GPS1.1-F18-APT73.77, geranyl diphosphate synthase, mutant soluble aromatic prenyltransferase fusion protein) MSKAKFESVFPRISEELVQLLRDEGLPQDAVQWFSDSLQYNCVGGKLNRGLSVVDTYQLLTGKKELDDEEYYRLALLGWLIELLQAFWLVSDDIMDESKTRRGQPCWYLKPKVGMIAIWDAFMLESGIYILLKKHFRQEKYYIDLVELFHDISFKTELGQLVDLLTAPEDEVDLNRFSLDKHSFIVRYKTAYYSFYLPVVLAMYVAGITNPKDLQQAMDVLIPLGEYFQVQDDYLDNFGDPEFIGKIGTDIQDNKCSWLVNKALQKATPEQRQILEDNYGVKDKSKELVIKKLYDDMKIEQDYLDYEEEVVGDIKKKIEQVDESRGFKKEVLNAFLAKIYKRQKGGGGSLEDPAVWEAGKVVAKGVGTADITATTSNGLIASSEEADNAATSMDEVYAAVEQTSRLLDVPCSPDRFEPVWKAFGDQLPDSHLVFSMAAGEAHRGELDFDFSLRPEGADPYTTALEHGFIEPTDHPVGSVLAEVGKRFAIASYGVEYGVVGGFKKSYAFFPLDDFPPLAQFAEVPSVPPCLAGHVETLTRLGFDDKVSIIGVNYRKNTLNVYLAASAVDTGDKLALLRAFGYPEPDARVRQFIERSFRLYPTFNWDSSAAERICFAVHTQQPGELPAPHDEPTEAFARQVPHVYEGGREFVSGVALAPSGASYYKLAALYQKARRCLD	468 ± 24	121 ± 2	3.9			
GPS1.1-F16-APT73.77: fusion protein, SEQ ID NO: 63 (protein, GPS1.1-F16-APT73.77, geranyl diphosphate synthase, mutant soluble aromatic prenyltransferase fusion protein) MSKAKFESVFPRISEELVQLLRDEGLPQDAVQWFSDSLQYNCVGGKLNRGLSVVDTYQLLTGKKELDDEEYYRLALLGWLIELLQAFWLVSDDIMDESKTRRGQPCWYLKPKVGMIAIWDAFMLESGIYILLKKHFRQEKYYIDLVELFHDISFKTELGQLVDLLTAPEDEVDLNRFSLDKHSFIVRYKTAYYSFYLPVVLAMYVAGITNPKDLQQAMDVLIPLGEYFQVQDDYLDNFGDPEFIGKIGTDIQDNKCSWLVNKALQKATPEQRQILEDNYGVKDKSKELVIKKLYDDMKIEQDYLDYEEEVVGDIKKKIEQVDESRGFKKEVLNAFLAKIYKRQKGGGSGGGSGGGSGGGGSMDEVYAAVEQTSRLLDVPCSPDRFEPVWKAFGDQLPDSHLVFSMAAGEAHRGELDFDFSLRPEGADPYTTALEHGFIEPTDHPVGSVLAEVGKRFAIASYGVEYGVVGGFKKSYAFFPLDDFPPLAQFAEVPSVPPCLAGHVETLTRLGFDDKVSIIGVNYRKNTLNVYLAASAVDTGDKLALLRAFGYPEPDARVRQFIERSFRLYPTFNWDSSAAERICFAVHTQQPGELPAPHDEPTEAFARQVPHVYEGGREFVSGVALAPSGASYYKLAALYQKARRCLD	421 ± 44	113 ± 12	3.7			
GPS1.1-F11-MPT31: fusion protein, SEQ ID NO: 27 (protein, GPS1.1-F11-MPT31, geranyl diphosphate synthase, recombinant membrane-bound prenyltransferase fusion protein) MSKAKFESVFPRISEELVQLLRDEGLPQDAVQWFSDSLQYNCVGGKLNRGLSVVDTYQLLTGKKELDDEEYYRLALLGWLIELLQAFWLVSDDIMDESKTRRGQPCWYLKPKVGMIAIWDAFMLESGIYILLKKHFRQEKYYIDLVELFHDISFKTELGQLVDLLTAPEDEVDLNRFSLDKHSFIVRYKTAYYSFYLPVVLAMYVAGITNPKDLQQAMDVLIPLGEYFQVQDDYLDNFGDPEFIGKIGTDIQDNKCSWLVNKALQKATPEQRQILEDNYGVKDKSKELVIKKLYDDMKIEQDYLDYEEEVVGDIKKKIEQVDESRGFKKEVLNAFLAKIYKRQKGGAEAAAKEAAAKAGGSGGGSGGGGSGGSGGGGSGGGGSMSDNSIATKILNFGHACWKLQRPYVVKGMISIACGLFGRELLHNTNLISWGLMWKAFFALVPILSFNFFAAIMNQIYDLHIDRINKPDLPLASGEISVNTAWIMSIIVALTGLIVTIKLKSAPLFVFIYIFGIFAGFAYSVPPIRWKQNPSTNFLITISSHVGLAFTSYYASRAALGLPFELRPSFTFLLAFMTVMGMTIAFAKDISDIEGDAKYGVSTVATKLGARNMTFVVSGVLLLNYLVSISIGIIWPQVFKSNIMILSHAILAFWLILQTRDFALTNYDPEAGRRFFEFIWLLYYAEYLVYVFI				53 ± 4	5 ± 0	10.8
